± gives the standard deviation of the averaged measurements.
Test system: ATP
Experiment: switch fluorescence ratio, 500 uM ATP over buffer (Cy3 cluster intensity, sum of 5 cycles each) (fold (ratio)); higher = stronger signal-on switching upon ATP binding; sequences stand for … in TCGTCGGCAGCGTCAGATGTGTATAAGAGACAGTTTTTTTTTTTTTTTTTTTTTTTTT…TC
Conditions: aptamer strand: ATP DNA aptamer (quencher-CACCTGGGGGAGTATTGCGGAGGAAGG + anchor), 100 nM annealed; ATP concentration: 500 uM
Summary of the method: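 For every switch-domain sequence, the fluorescence ratio is the mean of per-cluster values, each being summed target-cycle Cy3 intensity over summed buffer-cycle Cy3 intensity. Clusters outside 100-1000 RFU were excluded. On a modified Illumina MiSeq flow-cell, the Cy3-labelled switching-strand clusters were annealed to 100 nM quencher-labelled ATP aptamer, imaged in selection buffer and then after 15 min with 500 uM ATP at 22 °C. Five such cycles were run, with NaOH stripping and re-annealing between them.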
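Note: ATP exposure 15 min at 22 °C before imaging.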

Row | Sequence | switch fluorescence ratio
1 | TTTATTTTTG | 0.992 ± 0.029
2 | TCTTGGGCCG | 1.03 ± 0.061
3 | TGAAGTTGTA | 0.965 ± 0.035
4 | AAGAGAGGGA | 0.981 ± 0.041
5 | GTGTGGAGGT | 0.964 ± 0.016
6 | CGGGGGGCCG | 0.995 ± 0.01
7 | CTGCGGGAGG | 1.008 ± 0.0024
8 | AGGGCATTCT | 0.9837 ± 0.0017
9 | CTGGGAGGGT | 0.9977 ± 0.0012
10 | AAAATTTTGC | 1.12 ± 0.2
11 | CCGTGCACAT | 2.679 ± 0.0035
12 | TGTCAGTGGG | 0.975 ± 0.034
13 | ATGCCAAAGG | 1.01 ± 0.055
14 | TCCGGGTTTT | 0.963 ± 0.019
15 | ATGTAACTGT | 0.976 ± 0.033
16 | TGCGCAACTT | 1.0306 ± 0.001
17 | ACGCTCGACC | 1.75 ± 0.15
18 | GGGGGGGCGG | 1 ± 0.024
19 | GGTACTATTT | 1 ± 0.026
20 | TTAGTTTTGT | 0.999 ± 0.027
21 | GTTTGGAGTG | 1 ± 0.041
22 | CGGATACGGT | 0.997 ± 0.04
23 | GGCTGGTTGG | 1.01 ± 0.017

Row | Sequence | switch fluorescence ratio
24 | ACTGCTACGA | 1.36 ± 0.018
25 | CGATTGGGGG | 1.01 ± 0.018
26 | AGATAAAACG | 1.02 ± 0.076
27 | TTACTTGAGG | 1.11 ± 0.13
28 | TGTGGACTGT | 0.9855 ± 0.0015
29 | GGGGAAATCC | 1.02 ± 0.046
30 | CCGTAACGGG | 1.09 ± 0.085
31 | CCGGAAGACG | 1.39 ± 0.18
32 | GGTAGGGAGC | 0.993 ± 0.055
33 | TAATGTTTCG | 0.978 ± 0.013
34 | CAGAGTACGT | 1.036 ± 0.0091
35 | TTTTGGACTC | 1.007 ± 0.006
36 | CAGAGAGGTC | 1.03 ± 0.039
37 | TAATCTTAGG | 0.9838 ± 0.0079
38 | TATGGCCGTG | 0.998 ± 0.061
39 | TCTCGTTGGG | 1.012 ± 0.005
40 | GTTGATCAT | 0.983 ± 0.015
41 | TTACCTTTTT | 1.02 ± 0.013
42 | GTTGGTTGGA | 0.983 ± 0.022
43 | GGATGGGTGG | 0.99 ± 0.025
44 | ATAGTATGGT | 0.9976 ± 0.0089
45 | ACTCGAGGTT | 1.05 ± 0.013
46 | GGGGGTATAC | 1.28 ± 0.11

Row | Sequence | switch fluorescence ratio
47 | ATTGAGATGC | 0.938 ± 0.014
48 | ACCTTTTTAG | 1.02 ± 0.015
49 | GTAATTGGTG | 0.992 ± 0.014
50 | TGGTAAAGCA | 1.06 ± 0.11
51 | CCTGATTTGG | 0.969 ± 0.03
52 | TTTTGGGGCG | 1.04 ± 0.055
53 | TTGGTTTACG | 1.02 ± 0.03
54 | AGGGATAAGC | 0.988 ± 0.021
55 | TTCTCGAGTT | 0.992 ± 0.013
56 | AGCGGAGTAT | 0.998 ± 0.063
57 | ATTTTGTGTA | 1.005 ± 0.004
58 | AGGGTGGAAA | 1.02 ± 0.019
59 | ACGTCTTACT | 1.101 ± 0.0018
60 | CAGGGAACGG | 1.05 ± 0.022
61 | ACACGCGCCT | 1.08 ± 0.011
62 | GGTTATGCTG | 1.03 ± 0.1
63 | GAAAAAAAGC | 1.01 ± 0.053
64 | CAATGGACGT | 0.99 ± 0.029
65 | AATTTGTTGG | 0.996 ± 0.017
66 | TGTTTGTGGC | 1.12 ± 0.16
67 | TGGCTGTTGA | 1.01 ± 0.018
68 | TCAGAGGTAT | 1.02 ± 0.014
69 | GAGAAAATCT | 1.01 ± 0.033

Row | Sequence | switch fluorescence ratio
70 | GGGCTCAGAA | 1.03 ± 0.028
71 | TTGGGGCATA | 1.43 ± 0.77
72 | GGATACGGGC | 1.02 ± 0.079
73 | GTGTGCTTAG | 1.027 ± 0.004
74 | TCATTTCGGG | 0.991 ± 0.038
75 | GACGATGCGG | 1.196 ± 0.0058
76 | CTTTGAAGGA | 0.992 ± 0.03
77 | AAAGTGTGTT | 0.993 ± 0.025
78 | ATATGGAGTT | 0.943 ± 0.022
79 | GGTCTATTTT | 0.986 ± 0.023
80 | TTTGCGTAAG | 1.02 ± 0.033
81 | GACGCGTTTA | 1.07 ± 0.034
82 | ACTAATAAGA | 1.01 ± 0.019
83 | GCCCTCTCGA | 1.018 ± 0.0079
84 | ATAGTGGGGG | 0.975 ± 0.017
85 | GTTTGGAGGG | 0.979 ± 0.029
86 | CGACTGATTA | 0.991 ± 0.013
87 | GGTACTCGTT | 0.991 ± 0.016
88 | CACTGGGGTG | 1.04 ± 0.038
89 | AGACGGGTGC | 1.08 ± 0.074
90 | CAAAAGTTGT | 0.992 ± 0.043
91 | CAAAGGGGCA | 1.046 ± 0.0052
92 | AATTGTTATT | 0.9919 ± 0.0034

Row | Sequence | switch fluorescence ratio
93 | CAGGGTGGAC | 1.04 ± 0.04
94 | CCGGGAGTTA | 1.15 ± 0.034
95 | TTGTATAAGG | 1 ± 0.015
96 | TTGGTCTATC | 0.998 ± 0.035
97 | GACGTCAGCG | 1.05 ± 0.059
98 | TTTTTATAAG | 0.994 ± 0.019
99 | TTACAATATT | 1.07 ± 0.03
100 | TACAAGTCGT | 0.98 ± 0.012
101 | CGTTTTCTCG | 0.994 ± 0.027
102 | CGGTTAAAAT | 0.989 ± 0.023
103 | GCGGAAGGTG | 1.55 ± 0.032
104 | TACGCAGAAT | 3.38 ± 3.2
105 | AAAATTTACG | 1.1 ± 0.16
106 | GAGTGGGGGC | 1.01 ± 0.054
107 | TTTAGATTCT | 0.992 ± 0.032
108 | AAGTTCGTTG | 1.01 ± 0.036
109 | CGGGTGCACT | 0.98 ± 0.027
110 | GTCTAACTTA | 1.01 ± 0.033
111 | GGGGTCAGTC | 0.9933 ± 0.0099
112 | AAGTCAAAGT | 1.03 ± 0.051
113 | ACACGTAACT | 1.359 ± 0.0099
114 | GCTGTTTTGG | 0.965 ± 0.027
115 | ATGGGCGGCC | 1.0476 ± 0.00053

Row | Sequence | switch fluorescence ratio
116 | TTGAGGAATG | 1.02 ± 0.018
117 | TTTGGACGGC | 1.04 ± 0.065
118 | ACGTTTCCCC | 1.09 ± 0.025
119 | TTTTTGCCGA | 1.01 ± 0.052
120 | GGAAGGGATT | 1.05 ± 0.08
121 | GCAGTATTCC | 1.66 ± 0.11
122 | AGTAAATTTA | 1.001 ± 0.0046
123 | ATTGGGCAAT | 1.054 ± 0.0023
124 | GGGTAATGAG | 1 ± 0.022
125 | GAAGATGAGG | 1 ± 0.028
126 | ATGTTTTATG | 0.992 ± 0.042
127 | GGGCATTGTG | 1.03 ± 0.056
128 | CGAGATGGGT | 0.974 ± 0.028
129 | GTAAGGTAAG | 1.05 ± 0.015
130 | ATTATCTTGG | 1.05 ± 0.064
131 | AAGAGGCCGG | 0.986 ± 0.031
132 | GATAAGTATG | 0.975 ± 0.015
133 | ATTGGCCATC | 0.997 ± 0.0048
134 | CTTGGTTCGA | 0.978 ± 0.026
135 | AGTCCTCGGA | 0.96685 ± 0.00022
136 | TATTTTCGTA | 1 ± 0.021
137 | TCAGTTTACG | 0.988 ± 0.019
138 | TCGCCATCCT | 1.09 ± 0.019

Row | Sequence | switch fluorescence ratio
139 | CGTGAGGGAG | 0.994 ± 0.029
140 | GCAAATGCGT | 1.03 ± 0.059
141 | ACGAGATGGT | 1.023 ± 0.0069
142 | AGGGATGGTA | 1.006 ± 0.0083
143 | TTTTTCGGCC | 0.979 ± 0.026
144 | CAGAACTCTT | 0.963 ± 0.034
145 | CATTTGCTCT | 1 ± 0.013
146 | GGGGGGCGGT | 0.989 ± 0.015
147 | TTCGGTGGCG | 0.978 ± 0.077
148 | GGACTGGAGC | 0.9905 ± 0.0021
149 | CTGCAGGGGG | 1.05 ± 0.044
150 | TCAATGGGAA | 0.967 ± 0.026
151 | GGTAAAAGGT | 1.02 ± 0.051
152 | AGGGTAGTGC | 0.9869 ± 0.0091
153 | TAAAAAGTTT | 0.997 ± 0.03
154 | TAGGGGGCTG | 1.01 ± 0.02
155 | ACTTTTTAGT | 0.986 ± 0.05
156 | CGAGGCAGCT | 1.16 ± 0.15
157 | CGAGATATGT | 1.002 ± 0.0038
